Test results taken from publication doi:10.1101/677500.

Experiments:
[1] = target: EhPKDL-FITC (Entamoeba histolytica); assay: other fluorescence titration
[2] = target: GST-EhPKDL (Entamoeba histolytica Protein kinase D like kinase, recombinant) (Entamoeba histolytica); assay: SEC

stoichiometry N [1] [molar ratio]	stoichiometry N [2]	Substance
1	–	actin-TRITC (natural protein)
–	2	GST-EhPKDL (Entamoeba histolytica Protein kinase D like kinase, recombinant) (enzyme)
